In patent US8357518B2, “Thermostable enzymes for the hydrolysis of mannan-containing polysaccharides” (The Board of Trustees of the University of Illinois, priority 2010, dated 2013):

B1: Caldanaerobius polysaccharolyticus endo-β-mannanase Man5B, wild type, SEQ ID NO: 31 (Caldanaerobius polysaccharolyticus) (protein)
chain: MKKYGFNFQWMYVWEEGREPEPPDKKALDFLAETGFNFVRIPVDYRFWTRNFDYFNPDKKVFEYIDLYLRECSARNIHMCLNLHRAPGYCINRNDIERDNLWLDKRAQDGFVYQWELFAKRYKGVSSKFLSFDLVNEPPNIGQYGLTRENHASLIIRTVEAIRKIDPDREIVIDGLGGGNIAMPELAHLGVVHSGRGYQPMALTHYQASWWDGHKGLPEPYYPDLLWQGKVWNKDTLREYYKPWRDLQQKGVNVHIGEFGCFNKTSNDVAIRWFEDVLSLYKEFEWGYSLWNFKGPFGIVEHGRPGAKYEYYRGFKVDRELLDLLVENRV
B2: Caldanaerobius polysaccharolyticus endo-β-mannanase Man5A truncation mutant Man5A-TM2, SEQ ID NO: 29 (Caldanaerobius polysaccharolyticus) (protein)
chain: AGTSGDGRFHVVGNKIVDPDGKDFIIKGVNIQGYRSWEKRSVLQDVHLIADVWKFNTVRLNCFIGQNNWGEGTGANNDIDAIIKAFTAKKVVVEIDLHDTTGYPPLSNPPPAPGQPSLDQAIAWFKELAAKYKDNPYVWFNTMNEPGSSTAPLDPQWKVANEEIIKAIRSTGADNIIVVDGWSYANEGIEQNTPTVDEKRSAVLTYGQDLLNADSAKNTIFAFHNYNEGDIQKKVEDYIDRANAKGLYVFMEEYGKDYSDAAKEGVKSGLQAVMNKGAGRIYWNWDGYDLYDLTSGTGRGSGWEINKTDGSKPTNLSWVGDKIWDDNHGITPTFDDQNPKVDLALERLIANNNGFKAGDKVQFTTFLRNSGDLPIGKDSKVVVKFYVDGVQLGDPVEISGGIAVGQRIPVTSPELTVSKTDFTVKAVIDSSSTYADGAEDAVIENNWIEAAFNSTAPSSGYELVVTGIKITPDTVKEGDYVQAQVTVANQGPEATPVTNIIGWFYVNGYYYTLDDAAKSCAEQDNVTLKPGESITLSTKVKYRAAAPFNFSFVLENLYADDQNQSNNSITVNVPVK

Legend:
[1] = substrate: OC[C@H]1O[C@@H](O[C@H]2[C@H](O)[C@@H](O)[C@H](O[C@H]3[C@H](O)[C@@H](O)[C@H](O[C@H]4[C@H](O)[C@@H](O)[C@H](O[C@H]5[C@H](O)[C@@H](O)[C@H](O[C@H]6[C@H](O)[C@@H](O)C(O)O[C@@H]6CO)O[C@@H]5CO)O[C@@H]4CO)O[C@@H]3CO)O[C@@H]2CO)[C@H](O)[C@@H](O)[C@@H]1O; assay: purified protein, by the assay type; conditions: other: Man5B 3 nM, oligosaccharide 30 μM, citrate buffer 50 mM, pH 5.5, 5 min, triplicate
[2] = substrate: OC[C@H]1O[C@@H](O[C@H]2[C@H](O)[C@@H](O)[C@H](O[C@H]3[C@H](O)[C@@H](O)[C@H](O[C@H]4[C@H](O)[C@@H](O)C(O)O[C@@H]4CO)O[C@@H]3CO)O[C@@H]2CO)[C@H](O)[C@@H](O)[C@@H]1O; assay: purified protein, by the assay type; conditions: other: Man5B 3 nM, oligosaccharide 30 μM, citrate buffer 50 mM, pH 5.5, 5 min, triplicate
[3] = substrate: OC[C@H]1O[C@@H](O[C@H]2[C@H](O)[C@H](O)[C@H](O[C@H]3[C@H](O)[C@H](O)C(O)O[C@@H]3CO)O[C@@H]2CO)[C@@H](O)[C@@H](O)[C@@H]1O; assay: purified protein, by the assay type; conditions: other: Man5B 3 nM, oligosaccharide 30 μM, citrate buffer 50 mM, pH 5.5, 5 min, triplicate
[4] = substrate: OC[C@H]1O[C@@H](O[C@H]2[C@H](O)[C@H](O)[C@H](O[C@H]3[C@H](O)[C@H](O)[C@H](O[C@H]4[C@H](O)[C@H](O)C(O)O[C@@H]4CO)O[C@@H]3CO)O[C@@H]2CO)[C@@H](O)[C@@H](O)[C@@H]1O; assay: purified protein, by the assay type; conditions: other: Man5B 3 nM, oligosaccharide 30 μM, citrate buffer 50 mM, pH 5.5, 5 min, triplicate
[5] = substrate: O=[N+]([O-])c1ccc(O[C@@H]2O[C@H](CO)[C@@H](O[C@@H]3O[C@H](CO)[C@@H](O)[C@H](O)[C@H]3O)[C@H](O)[C@H]2O)cc1; assay: Catalytic efficiency with pNP-linked sugars (Man5A-TM2); type: biochemical, Caldanaerobius polysaccharolyticus; conditions: other: Man5A-TM2, pNP substrates, citrate buffer 50 mM, pH 5.5, 65° C., triplicate
Description: (§1) The plasmid constructs were then introduced into E. coli BL-21 CodonPlus (DE3) RIL competent cells by heat shock, and grown overnight in lysogeny broth (LB) agar medium supplemented with ampicillin (100 μg/mL) and chloramphenicol (50 μg/mL) at 37° C. After 12 h, single colonies were selected and used to inoculate fresh LB (10 mL) supplemented with the antibiotics above at the same concentrations, followed by culturing with aeration for 8 h at 37° C. The pre-cultures were then inoculated into fresh LB (1 L) supplemented with ampicillin and chloramphenicol and the cultures were incubated at 37° C. with vigorous aeration (225 rpm/min). […] Aliquots of eluted fractions were analyzed by sodium dodecyl sulfate-polyacrylamide gel electrophoresis (SDS-PAGE) and protein bands were visualized by staining with Coomassie brilliant blue G-250. […] The UV absorbances of the protein solutions were recorded at 280 nm using a Nanoprop 1000 from Thermo Scientific (Waltham, Mass.) and the protein concentrations were calculated using the following extinction coefficients: Man5A-TM1, ε280 nm=189 mM^−1 cm^−1; Man5A-TM2, ε280 nm=113 mM^−1 cm^−1; Man5B, ε280 nm=103 mM^−1 cm^−1.
(§2) Hydrolysis of para-nitrophenyl (pNP) linked sugars. […] The extinction coefficient of pNP at pH 5.5 was determined as 1636 M^−1 cm^−1.

[6] = substrate: O=[N+]([O-])c1ccc(O[C@@H]2O[C@H](CO)[C@@H](O)[C@H](O)[C@@H]2O)cc1; assay: as above; type: biochemical, Caldanaerobius polysaccharolyticus; conditions: other: Man5A-TM2, pNP substrates, citrate buffer 50 mM, pH 5.5, 65° C., triplicate
Description: as §1, §2

Protein	kcat/Km [1]	kcat/Km [2]	kcat/Km [3]	kcat/Km [4]	kcat/Km [5]	kcat/Km [6]
B1	43000 ± 3000 M⁻¹ s⁻¹	1400 ± 200 M⁻¹ s⁻¹	270 ± 50 M⁻¹ s⁻¹	63000 ± 6000 M⁻¹ s⁻¹		
B2					(2.5 ± 0.3) × 10^−2 mM^−1 s^−1	(1.1 ± 0.2) × 10^−2 mM^−1 s^−1
